Data from patent US20100095387A1 (published 2010).

B1: C-Ag15, 15-kD COOH-terminal fragment of mouse agrin (37 amino acids deleted from the NH2 terminus of C-Ag20) (ligand, not shown: small tags and cut ends)
chain: MDPWIGKAAERADYMALAIVDGHLQLSYDLASQPVVLRSTVKVNTNRWLRVRAHREHREGSLQVGNEAPVTSSSPLGATQLDTDGALWLGGLQKLPVGQPLPKAYGTGFVGCLRNVVGHRQLHLLEDAVTKPELRPCPTLNSKLGPEQKLISEEDLNSAVDHHHHHH
B2: rC-Agy4z8, soluble 95-kD COOH-terminal fragment of rat agrin, y4 z8 (ligand, UniProt P25304-5 1153-1951, looked up)
chain: AATGTTAAMATARATTVSRLPASSVTPRVYPSHTSRPVGRTTAPPTTRRPPTTATNMDRPRTPGHQQPSKSCDSQPCLHGGTCQDQDSGKGFTCSCTAGRGGSVCEKVQPPSMPAFKGHSFLAFPTLRAYHTLRLALEFRALETEGLLLYNGNARGKDFLALALLDGRVQFRFDTGSGPAVLTSLVPVEPGRWHRLELSRHWRQGTLSVDGETPVVGESPSGTDGLNLDTNLYVGGIPEEQVAMVLDRTSVGVGLKGCIRMLDINNQQLELSDWQRAAVQSSGVGECGDHPCLPNPCHGGALCQALEAGMFLCQCPPGRFGPTCADEKSPCQPNPCHGAAPCRVLSSGGAKCECPLGRSGTFCQTVLETAGSRPFLADFNGFSYLELKGLHTFERDLGEKMALEMVFLARGPSGLLLYNGQKTDGKGDFVSLALHNRHLEFCYDLGKGAAVIRSKEPIALGTWVRVFLERNGRKGALQVGDGPRVLGESPKSRKVPHTMLNLKEPLYIGGAPDFSKLARGAAVSSGFSGVIQLVSLRGHQLLTQEHVLRAVDVSPFADHPCTQALGNPCLNGGSCVPREATYECLCPGGFSGLHCEKGLVEKSVGDLETLAFDGRTYIEYLNAVIESPETLDSRALFSEKALQSNHFELSLRTEATQGLVLWIGKAAERADYMALAIVDGHLQLSYDLGSQPVVLRSTVKVNTNRWLRIRAHREHREGSLQVGNEAPVTGSSPLGATQLDTDGALWLGGLQKLPVGQALPKAYGTGFVGCLRDVVVGHRQLHLLEDAVTKPELRPCPTP
notes: domain: soluble 95-kD COOH-terminal fragment; Harvested in medium conditioned by transiently transfected COS-7 cells; concentration only estimated; also called Rat C-Ag4,8; rC-Ag95y4z8
B3: C-Ag20z8, 20-kD COOH-terminal fragment of mouse agrin, z8 splice variant (ligand, not shown: small tags and cut ends)
chain: MDPRTYIEYLNAVTESELTNEIPAEKALQSNHFELTLRTEATQGWLVLWIGKAAERADYMALAIVDGHLQLSYDLASQPVVLRSTVKVNTNRWLRVRAHREHREGSLQVGNEAPVTSSSPLGATQLDTDGALWLGGLQKLPVGQPLPKAYGTGFVGCLRNVVGHRQLHLLEDAVTKPELRPCPTLNSKLGPEQKLISEEDLNSAVDHHHHHH
B4: C-Ag20z0, 20-kD COOH-terminal fragment of mouse agrin, z0 splice variant (ligand, not shown: small tags and cut ends)
chain: MDPRTYIEYLNAVTESEKALQSNHFELTLRTEATQGWLVLWIGKAAERADYMALAIVDGHLQLSYDLASQPVVLRSTVKVNTNRWLRVRAHREHREGSLQVGNEAPVTSSSPLGATQLDTDGALWLGGLQKLPVGQPLPKAYGTGFVGCLRNVVGHRQLHLLEDAVTKPELRPCPTLNSKLGPEQKLISEEDLNSAVDHHHHHH

How the values were obtained:
[1] = target: T1, α3 subunit of the Na+/K+-ATPase, endogenous on mouse cells (cortical neurons, cortical slices, cardiac … (mouse, UniProt Q6PIC6 1-1013)); assay: cell-based or functional assay
[2] = target: T1, α3 subunit of the Na+/K+-ATPase, …; assay: competition against C-Ag20z8 on live cortical neurons, NIH Image analysis of immunofluorescence; competitor C-Ag20z8

Binder | IC50 of inhibition of c-fos induction by 50 pM C-Ag95z8 (cortical cultures, single-site competition model) [1] | reduction of labeling (mean pixel intensity) at a 1:1 molar ratio [2] | EC50 of c-fos induction (Fos in situ enzyme-linked immunoassay, cortical cultures) [1] | glutamate-induced Fos expression of agrin-deficient neurons grown 2 d in 5 nM fragment [1]
B1 | 64.5 pM | – | – | –
B2 | – | ~30% | – | –
B3 | – | – | 0.0112 nM | 2.2 fold
B4 | – | – | 0.0133 nM | 2.2 fold
